{"source": "patent US20150218281A1", "about": "(Ablynx, published 2015)", "binders": {"B1": {"name": "recombinant human OX40L (extracellular domain, R&D Systems) (ligand)", "chain": "QVSHRYPRIQSIKVQFTEYKKEKGFILTSQKEDEIMKVQNNSVIINCDGFYLISLKGYFSQEVNISLHYQKDEEPLFQLKKVRSVNSLMVASLTYKDKVYLNVTTDNTSLDDFHVNGGELILIHQNPGEFCVL", "notes": "also called hOX40L; rec. hOX40L"}, "B2": {"name": "OX40L056 (VHH, not shown: small tags and cut ends)", "VHH": "DVQLVESGGGLVQPGGSLRLSCAASRSIGRLDRMGWYRHRPGKPRELVATITGGSSINYADSVKGRFTISRDNSKNTVYLQMNSLRPEDTAVYYCNFNKYVTSRDTWGQGTLVTVSS"}, "B3": {"name": "OX40L083 (VHH, not shown: small tags and cut ends)", "VHH": "B2 VHH with D1E, A60G, R71I"}, "B4": {"name": "OX40L082 (VHH, not shown: small tags and cut ends)", "VHH": "B2 VHH with D1E, K43E, A60G, R71I"}}, "key": {"OX40L01E07": {"molecular_target": "T1, OX40L01E07", "T1 construct": "monovalent Nanobody from E. coli; not shown: C-terminal c-myc and His6 tag", "T1 sequence (VHH, as listed by the source)": "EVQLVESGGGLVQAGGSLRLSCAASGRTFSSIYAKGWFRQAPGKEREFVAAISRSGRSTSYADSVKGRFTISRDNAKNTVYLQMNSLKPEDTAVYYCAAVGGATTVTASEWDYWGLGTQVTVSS", "test": "competition ELISA: fixed concentration of OX40L01E07 pre-incubated with a concentration series of soluble hOX40L, then added to biotinylated hOX40L captured on neutravidin; bound Nanobody detected with rabbit anti-VHH antiserum and HRP goat anti-rabbit IgG, OD450nm", "method": "The binding of OX40L blocking Nanobodies to other TNF family members was tested in a competition ELISA.\nDetection was done using sTMB (SDT Reagents, Baesweiler, Germany), the reaction was stopped with 1M HCl and absorbance was determined at 450 nm."}, "[1]": {"molecular_target": "B1", "test": "cell-based or functional assay"}, "[2]": {"molecular_target": "T2, biotinylated hOX40L (R&D Systems, biotinylated in house) (human, UniProt P23510 51-183, biotinylated with Sulfo-NHS-LC-Biotin, sites not stated)", "T2 construct": "same bought protein as m10, biotinylated; also called biotinylated OX40L", "T2 sequence": "B1 chain", "test": "hOX40L/hOX40 AlphaScreen, assay 2, heated at Tm+10 C", "method": "(§1) Next, streptavidin donor beads were added and incubated for an additional 1 hour. Fluorescence was measured by reading plates on the EnVision Multilabel Plate Reader using an excitation wavelength of 680 nm and an emission wavelength of 520 nm.\n(§2) In the TSA assay, Nanobodies were diluted to a concentration of 0.2 mg/ml and melting temperature (Tm) was determined at different pH by stepwise increase in temperature in presence of Sypro Orange, a dye that binds to […] residues that become exposed upon unfolding of the protein, using the Lightcycler (Roche) for detection. […] In SEC analysis, the Nanobodies were analyzed on a Phenomenex matrix to allow detection of multimers, aggregates or ‘stickyness’."}, "[3]": {"molecular_target": "T2, biotinylated hOX40L (R&D Systems, …)", "test": "hOX40L/hOX40 AlphaScreen, assay 3, native", "method": "as §1, §2"}, "[4]": {"molecular_target": "T2, biotinylated hOX40L (R&D Systems, …)", "test": "hOX40L/hOX40 AlphaScreen, assay 2, native; assay 2, native (not Tm + 10° C.)"}, "[5]": {"molecular_target": "T2, biotinylated hOX40L (R&D Systems, …)", "test": "hOX40L/hOX40 AlphaScreen, assay 3, heated at Tm+10 C", "method": "as §1, §2"}, "[6]": {"molecular_target": "T2, biotinylated hOX40L (R&D Systems, …)", "test": "hOX40L/hOX40 AlphaScreen"}}, "note": "Changes are numbered by the printed parent chain.", "data": [{"binder": "B1", "values": [{"measurement": "IC50 (read off the curve)", "setting": "OX40L01E07", "value": "~0.8", "unit": "nM"}]}, {"binder": "B2", "values": [{"measurement": "IC50, T cell assay with rec. hOX40L", "setting": "[1]", "value": 135, "unit": "nM"}, {"measurement": "IC50", "setting": "[2]", "value": 1.12, "unit": "nM"}, {"measurement": "IC50", "setting": "[3]", "value": 1.12, "unit": "nM"}, {"measurement": "IC50", "setting": "[4]", "value": 1.12, "unit": "nM"}, {"measurement": "IC50", "setting": "[5]", "value": 1.12, "unit": "nM"}]}, {"binder": "B3", "values": [{"measurement": "fold drop in potency compared with the parental Nanobody OX40L15B07", "setting": "[6]", "value": "~6", "unit": "fold"}]}, {"binder": "B4", "values": [{"measurement": "fold decrease in potency compared with the parental Nanobody OX40L15B07", "setting": "[6]", "value": "~2", "unit": "fold"}, {"measurement": "IC50", "setting": "[3]", "value": 0.14, "unit": "nM"}, {"measurement": "IC50", "setting": "[5]", "value": 0.14, "unit": "nM"}]}]}
